According to IntAct's records for PubMed 18809921:

B1: CCAAT/enhancer-binding protein beta (Homo sapiens), P17676 (parent)
chain: MQRLVAWDPACLPLPPPPPAFKSMEVANFYYEADCLAAAYGGKAAPAAPPAARPGPRPPAGELGSIGDHERAIDFSPYLEPLGAPQAPAPATATDTFEAAPPAPAPAPASSGQHHDFLSDLFSDDYGGKNCKKPAEYGYVSLGRLGAAKGALHPGCFAPLHPPPPPPPPPAELKAEPGFEPADCKRKEEAGAPGGGAGMAAGFPYALRAYLGYQAVPSGSSGSLSTSSSSSPPGTPSPADAKAPPTACYAGAAPAPSQVKSKAKKTVDKHSDEYKIRRERNNIAVRKSRDKAKMRNLETQHKVLELTAENERLQKKVEQLSRELSTLRNLFKQLPEPLLASSGHC

Variants of: B1
Settings: with abc3g_human APOBEC3G

effect of a mutation on the interaction	Variant
decreasing interaction	S288A
